First the molecules themselves.
B1: C582 (antibody, V domains shown)
VH: QVQLVESGGGVVQPGRSLRLSCVASGFTFSYFDMHWVRQAPGKGLEWVALISHDGSTTFYGDSARGRFTISRDNSRNTLDLQMNSLRPEDTAVYFCAKPVDAAMFDFWGQGTLVTVS
VL: SYELTQPPSVSVAPGKTARITCGGNNIGSKSVHWYQQRPGQAPVLVIYYDSDRPSGIPERFSGSNSGNTATLTISRVEAGDEADFYCQVWDRSTNHLVVFGGGTQLTVL
B2: C584 (antibody, V domains shown)
VH: EVQLVESGGGLVQPGGSLRLSCAASGFTFSTYDMHWVRQATGKGLEWVSAIGTAGDKYYPGSVKGRFTISRENAKNSLYLQMNSLRAGDTAVYYCVRAGYSSGWPLYWYFDLWGRGTLVTVSS
VL: DIQMTQSPSSLSASVGDRVTITCRASQSISSYLNWYQQKPGKAPKFLIYAASSLQSGVPSRFSGSGSGTDFTLTISNLQPEDFATYYCQQSYRTPPEFTFGPGTKVDIK
B3: C588 (antibody, V domains shown)
VH: EVQLVESGGGLVQPGGSLKLSCAASGFTFSGSAMHWVRQASGKGLEWVGRIRNKANSYATAYGASVRGRFTVSRDDSKNTAYLQMNSLKIEDTAVYYCTKDIAAGIPALNWFDSWGQGTLVTVSS
VL: EIVLTQSPATLSLSPGERATLSCRASQSVSSYLAWYQQKPGQAPRLLIYDASNRATGIPARFSGSGSGTDFTLTISSLEPEDFAVYYCQQHTNWPPRITFGGGTKVEIK
B4: C589 (antibody, V domains shown)
VH: QVQLQESGPGLVKPSQTLSLTCTVSGGSISSGDYYWSWIRQPPGKGLEWIGYIYYSGSTNYNPSLRSRVTISVDTSKNQFSLRLRSVTAADTAVYYCARDAIGSASYGVEYFQHWGQGTLVTVSS
VL: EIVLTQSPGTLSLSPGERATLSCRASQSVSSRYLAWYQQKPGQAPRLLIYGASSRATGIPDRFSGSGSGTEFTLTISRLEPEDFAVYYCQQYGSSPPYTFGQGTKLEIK
B5: C583 (antibody, V domains shown)
VH: EVQLVESGGGLIQPGGSLRLSCAASILTVSRNYMSWVRQAPGKGLEWVSSIYSGGTTYYADSVKGRFTISRDDSKNTLYLQMNSLRAEDTAVYYCARPVVGGRAGMDVWGQGTTVTVSS
VL: DIQMTQSPSSLSASVGDRVTITCQASQDINKYLNWYQQKPGKAPKLLIYDASNLETGVPSRFSGSGSGTDFTFTISSLQPEDIGTFYCLHNDNPPLTFGGGTKVEIK
B6: C593 (antibody, V domains shown)
VH: QVQLVQSGAEVKKPGASVKVSCKASGYTFTSYDINWVRQAPGQGLEWMGWMNPNSGNTDYAQKFQGRFTMTRNTSISTAYMELSSLRSEDTAVYYCASRRWDPLTFYYYMVVWGKGTTVTVSS
VL: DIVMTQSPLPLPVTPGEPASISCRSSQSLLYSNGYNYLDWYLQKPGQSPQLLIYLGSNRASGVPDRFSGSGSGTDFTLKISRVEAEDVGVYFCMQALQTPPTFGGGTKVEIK
B7: C582 (antibody, V domains shown)
VH: B1 VH
VL: B1 VL
B8: C591 (antibody, V domains shown)
VH: QVQLVQSGAEVKKPGASVKVSCKASGYILTDYFIHWVRQAPGQGLEWMGWINPNSGGTNYAQKFQGRVTMTRDTSISTAYMELSRLRSDDTAVYHCARYKGTTVNTNYYYGMDVWGQGTTVTVSS
VL: not shown
B9: C592 (antibody, V domains shown)
VH: B8 VH with I28T, L29F, I34N, Y60S, S77T, A79V, H95Y
VL: SYELTQPPSVSVSPGQTASITCSGDKLRNKYACWYQQKAGQSPMLVIYQDTKRPSGIPERFSGSNSGNTATLTISGTQAMDEADYYCQAWDISTVVFGGGTKLTVL
B10: C586 (antibody, V domains shown)
VH: EVQLVESGGGLIQPGGSLRLSCTASGLIVSSNYMSWIRQAPGKGLEWVSLIYSGGSTFYADSVKGRFTISRDNSKNTLFLHMNSLRAEDTAVYYCARHPYGTDVWGQGTTVTVSS
VL: DIQMTQSPSSLSASVGDRVTITCQASQDIVKYLNWYQQKSGKAPKLLIHDASNLETGVTSRFSGSGSGTHFTFTISSLQPEDLATYYCQQYDNLPITFGQGTRLEIK
B11: C596 (antibody, V domains shown)
VH: QVQLVESGGGVVQPGRSLRLSCAASGITFSHYGMHWVRQAPGKGLEWVALISSDGSKKYYADSVKGRFTISRDNSKSTLYLQMNSLRAEDTAIYYCAKDLGYYYGPPYGPDYWGQGTLVTVSS
VL: DIQMTQSPSSLSASVGDRVTITCQASQDVSNSLNWYQQKPGKAPKLLIYDASNLETGVPSRFSGSGSGTDFSFTISSLQPEDIATYYCLQYDNFSMYTFGQGTKLEIK
B12: C585 (antibody, V domains shown)
VH: QVQLQESGPGLVKPSETLSLTCTVSGDSISSYFWSWIRQPPGRGLEWIGYIHDSVNTNYNPSLKSRVTISVDTSKSQFSLRLSSVTAADTAVYYCARCAWLRGSFDYWGQGTLVTVSS
VL: NFMLTQPHSVSESPGKTVTISCTGSSGSIASNYVQWYQQRPGSAPTTVIYEDNQRPSGVPDRFSGSIDSSSNSASLTISGLKTEDEADYYCQSYDFSSHYVFGTGTKVTVL
B13: C594 (antibody, V domains shown)
VH: QVQLVESGGGVVQPGRSLRLSCAASGFTFSSYGMHWVRQAPGKGLEWVAVISDDGSNKYYADSVKGRFTISRDNSKNTLYLQMNSLRAEDTAVYYCAKSWWLSENWFDPWGQGTLVTVSS
VL: EIVMTQSPATLSVSPGERATLSCRASQSVSSNLAWYQQKPGQAPRLLIYGASTRATGIPARFSGTGSGTEFTLTISSLQSEDFAVYYCQQYNNWPLTFGGGTKVEIK
B14: C595 (antibody, V domains shown)
VH: B13 VH with P14A, Y32F, M34L, S56A, E89D, V93K
VL: B13 VL with S30R, T65S, E70D
B15: C590 (antibody, V domains shown)
VH: QVQLVQSGAEVKKPGASVKVSCKVSGYNLTELSMYWVRQAPGKGLEWMGGFDPEDGGPIHAQKFQGRVTMTEDPSTDTAYMELRSLRSEDTALYYCATGGLFMIRGLEIWGRGTLVTVSS
VL: EIVLTQSPGTLSLSPGERATLSCRASQSISYTSLAWYQQKPGQAPRLLIFGASRGATGTPDRFSGSWSGTDFTLTISRLEPEDFAVYYCQQYGNSPRLSFGGGTKVEIK
B16: C587 (antibody, V domains shown)
VH: QVQLVQSGAEVKKSGSSVKVSCKASGGSFSSYAISWVRQAPGQGLEWMGGIIPIFGTAKYAQKFQGRVTITADESTSTAYMELSSLRSEDTAVYYCASRWEQLNGGSWHYFDYWGQGTLVTVSS
VL: QSALTQPASVSGSPGQSITISCTGTRSDVGRNNLVSWYQHHPGKAPKVMIYEGSKRPSGVSTRFSGSKSGNTASLTISGLQAEDEADYYCCSYAGSSTFEGVFGGGTKLTVL
B17: C049 (antibody, V domains shown)
VH: QVQLQESGPGLVKPSETLSLTCTVSGGSVSSGTFYWSWIRQPPGKGLEWIGYIHYSGSTNYNPSLKSRVTISVDTSKNQFSLRLSSVTAADTAVYYCARESFYYDRSGYYGSDAFDIWGQGTMVTVSS
VL: DIQMTQSPSTLSSSVGDRVTITCRASQNISRWLAWYQQKPGKAPKLLIYKASTLESGVPSRFSGSGSGTKFTLTISSLQPDDFATYYCQQYNSYLYTFGQGTKLEIK

Where a chain is given by its changes, count along the chain named.

The first test concerns the target SARS-CoV-2 RBD (S protein residues 319-539), wild type (SARS-CoV-2, UniProt P0DTC2 319-539). As to the kind of experiment: ELISA, RBD coated on plate, mAb titrated. A general note: ELISA stands for enzyme-linked immunosorbent assay.
For B1, a half-maximal response (EC50) required 8.43 ng/mL.

The target in a further test is SARS-CoV-2 receptor binding domain (RBD), wild type (SARS-CoV-2, UniProt P0DTC2 319-539). In words: ELISA, RBD coated on the plate, antibody titrated.
In the case of B2, it took 10.5 ng/mL to reach a half-maximal effect (EC50).

Consider B3, for which the concentration for a half-maximal effect (EC50) (as a rule, the concentration at which the effect is half-maximal) was determined as 1.36 ng/mL.

Molecule B4 came in with an EC50 of 6.61 ng/mL. Same read-out and setting: the result for B5 reads 4.42 ng/mL. On the same count and under the same terms, the result for B6 reads 4.36 ng/mL; that for B7, 8.43 ng/mL; that for B8, 3.83 ng/mL.

The molecule B9 showed an EC50 of 6 ng/mL. Still for that read-out and setting: next, B10: 5.42 ng/mL; B11: 21 ng/mL. Still for that read-out and setting: the result for B12 reads 11 ng/mL; that for B13, 2.63 ng/mL; that for B14, 2.04 ng/mL. Same read-out and setting: next, B15: 2.81 ng/mL; B16: 4.39 ng/mL.

In a further test the target is SARS-CoV-2 spike protein on HIV-1 pseudotyped particles (SARS-CoV-2, UniProt P0DTC2 14-1254). In words: cell-based or functional assay.
As for B17, the “Neutralization IC50” value was 18.1 ng/mL and the “Neutralization IC90” value is 129 ng/mL.

The record behind these values is patent US20220195015A1 (published 2022).
